Data from article PMC4256047, “Structural and Functional Profiling of Environmental Ligands for Estrogen Receptors” (Environmental Health Perspectives, 2014).
Where no end group is shown, it is not given here. fluorescein = fluorescein label on the N-terminus of the peptide

Tests used:
Settings in all cases: both partners purified
[1] = molecular target: T1, human wt-ERβ LBD (estrogen receptor beta ligand-binding domain, amino acids 261-502) (human, UniProt Q92731 261-502); assay: fluorescence polarisation; fluorescence anisotropy; 4 nM fluorescein-SRC-1 NR2 peptide, LBD diluted 2-fold from 10 uM (ERα) or 20 uM (ERβ); with OHT (4-hydroxytamoxifen) at 20 uM (ERα) or 40 uM (ERβ); 20 mM Tris pH 8.0, 150 mM NaCl, 5 mM DTT, 10% glycerol
T1 construct: Cloned into pET-32a; N-terminal thioredoxine-hexahistidine tag removed with TEV protease; not shown: thioredoxin, N-terminal, cleaved; His6, N-terminal, cleaved
T1 sequence (Q92731 261-502): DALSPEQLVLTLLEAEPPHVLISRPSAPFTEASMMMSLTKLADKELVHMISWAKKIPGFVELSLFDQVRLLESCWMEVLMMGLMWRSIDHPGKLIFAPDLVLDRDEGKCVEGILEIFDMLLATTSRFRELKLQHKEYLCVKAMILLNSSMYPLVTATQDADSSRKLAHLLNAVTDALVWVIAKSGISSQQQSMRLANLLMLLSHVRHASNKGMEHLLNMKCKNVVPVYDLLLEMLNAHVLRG

[2] = molecular target: T2, human wt-ERα LBD (estrogen receptor alpha ligand-binding domain, amino acids 302-552) (human, UniProt P03372 302-552); assay: as above
T2 sequence (looked up): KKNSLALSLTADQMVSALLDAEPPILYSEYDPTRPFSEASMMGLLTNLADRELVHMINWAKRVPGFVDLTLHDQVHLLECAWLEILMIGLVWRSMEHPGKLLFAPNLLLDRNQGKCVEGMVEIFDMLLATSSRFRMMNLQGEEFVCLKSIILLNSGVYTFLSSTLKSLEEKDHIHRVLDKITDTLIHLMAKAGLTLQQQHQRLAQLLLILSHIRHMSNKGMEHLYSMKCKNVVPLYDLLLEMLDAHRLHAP

[3] = molecular target: T2, human wt-ERα LBD (estrogen receptor …); assay: fluorescence polarisation; fluorescence anisotropy; 4 nM fluorescein-SRC-1 NR2 peptide, LBD diluted 2-fold from 10 uM (ERα) or 20 uM (ERβ); with DDE at 20 uM (ERα) or 40 uM (ERβ); 20 mM Tris pH 8.0, 150 mM NaCl, 5 mM DTT, 10% glycerol
[4] = molecular target: T1, human wt-ERβ LBD (estrogen receptor …); assay: fluorescence polarisation; fluorescence anisotropy; 4 nM fluorescein-SRC-1 NR2 peptide, LBD diluted 2-fold from 10 uM (ERα) or 20 uM (ERβ); with 4-OP at 20 uM (ERα) or 40 uM (ERβ); 20 mM Tris pH 8.0, 150 mM NaCl, 5 mM DTT, 10% glycerol
[5] = molecular target: T1, human wt-ERβ LBD (estrogen receptor …); assay: fluorescence polarisation; fluorescence anisotropy; 4 nM fluorescein-SRC-1 NR2 peptide, LBD diluted 2-fold from 10 uM (ERα) or 20 uM (ERβ); with BPC at 20 uM (ERα) or 40 uM (ERβ); 20 mM Tris pH 8.0, 150 mM NaCl, 5 mM DTT, 10% glycerol
[6] = molecular target: T2, human wt-ERα LBD (estrogen receptor …); assay: as above
[7] = molecular target: T1, human wt-ERβ LBD (estrogen receptor …); assay: fluorescence polarisation; fluorescence anisotropy; 4 nM fluorescein-SRC-1 NR2 peptide, LBD diluted 2-fold from 10 uM (ERα) or 20 uM (ERβ); with HPTE at 20 uM (ERα) or 40 uM (ERβ); 20 mM Tris pH 8.0, 150 mM NaCl, 5 mM DTT, 10% glycerol

Kd [1]: 38.8 µM
Kd [2]: 23.6 µM
Kd [3]: 4.1 µM
Kd [4]: 1.55 µM
Kd [5]: 6.32 µM
Kd [6]: 9.07 µM
Kd [7]: 10.9 µM
B1: fluorescein-RHKILHRLLQEGS peptide corresponding to the NR box 2-binding motif of SRC-1 (peptide)
peptide: fluorescein-RHKILHRLLQEGS
notes: also called SRC-1 NR2 peptide; fluorescein-labeled SRC-1 NR2 peptide; source: bought: EZbiolab
